Assay: soluble on expression in E. coli; label from the status in PepcDB or PDB records

Row | Sequence | soluble on expression in E. coli
1 | MGSDKIHHHHHHMPNHDALAGGKVHLRRGVDLQVSHSPGVYPPLVFIHGGTGNRFNFRMQYEFAQAQGWEVLAYDLGGNGQSSRYSRYSIGRHCRDLARLLVRFGVESPVLCCHSYGVPIGLEFVQHHPVSAIIAIAGGTHDLAPWWEIPLMKFMAGGGRYLLHLPGVQKINKLLSTSYSHSVMERFFVENPPPTDFDAYKGLEIFWDYNFFIRHPLPKNLHIPALVITADKDPTFTANMGDELANHFDDGTHLHFAKGGHLVMAESAELVNEAIANWLIQKLTIN | not soluble
2 | MGSDKIHHHHHHMPNNALLQIKQDTLSLIDDLKVICTSFGLGNDGNEYKIITQCFLYKFLCDKFEFLFEQEFPNQTIQDYKDFNKEEKEEFFITLTDKRLPKLAYDDLLNYLFEKHFNDNDLHLKLDIIFNRISSNNAELFNTTSTDKTTIALFESISQYINEESKRANFTRVLLDKLKKFNFKQAFLNLQNQQGYDFFAPIFEYLLKDYNNAGGGKYAEYYTPLSIASIIAKLLINEPTRNVKIYDPSAGTGTLLMALAHQIGTDSCTLYAQDISQKSLRMLKLNLILNDLTHSLRNAIEGNTLTNPYHSKDFKGKMDYIVSNPPFKLDFSNEHAEISQNKNDFFLGVPNIPKNNKSKMPIYTLFFQHCLNMLSNKGKGAIIVPTGFISAKSGVENKIIRHLVDERLVYGVVCMPSQVFANTGTNVSIIFFQKTPSAKEVVLIDASKLGEEYTENKNKKTRLRPSDIDLILETFQNKTKKSDFCALVSFDEITEKIIL | not soluble
3 | MGSDKIHHHHHHMPPAKTQEFDPSRIKEPNSPSVITKAATLMDVLRTEGPTNSARLAEVLGEPISSVYRMLHTLTAIGWVEQDGKRGSYRVGLAMLTLAELQLRHMDLRKIAALTMRKIHALTGETTFLCVRHGIRAVCIERVDGDRVNSRVLQLGTSLPLHVGAAPRALLAFEGRRAWETYATNLGFEGHNWSKGPSRGELFQHLDEDRDKGFCLVDNEITPGIAAVGAPIYNHRGEVVASLSMSGLRDGILSDTTDYSAVELILQGSAEISQALGATIEHNGGNQKLPQVTPLSIVV | not soluble
4 | MGSDKIHHHHHHMPQFSPSYSFPVQIYYEDTDFSGVVYHPNFLKYFERAREHVIGAEQLRNLWQQQQLGFAVYRSDMLCHEGVEFADIIDIRTKFYFESKYRTVWHQEIWRPNGKKPAVTATIEMVCMNQARQLAPMPAELITQLSLGM | not soluble
5 | MGSDKIHHHHHHMPRKPIPALPPLDWLRSFEAAARLSNFTAAAAELGLTQAAVSQHIRLLEERLKTRLFSRLARGVALSPEGAAYLPHIQSAFATISSSTTELFEPRAVQTVSIRVPISFALLILVPALPDLAEALPRIQLDLVTIHRPTDYDLPGSALDIRFGNGSFPGREAGRLTAERLVPVASPALAGAADWTALPLLLVAGAREMWAEWFAAAGLAGHPQRSHRFDSFVAAMEAASAGAGVLLGSRPLVDAALRNRTLVPLSDFELSSSSGHFLTSASTARLTSAEQDFRQWLLGHLSRKAPA | not soluble
6 | MGSDKIHHHHHHMPSVVGHPQGNIEAIAFVIKFLEGLGFDIRITDIEKTEQPTIIAHYPGRLSDNKIVIYGHYDVAPVKELNSWVSEEAFTLENINGRLYGRGIADNKGPLMARMIALKSLILSDKAIPEILWLIQGEEEITQGDRVAHDIFKDEIPAFGAPVYIEETGFNDLDSNTQIAFLWSPDKSDSELIPWHSLLESSLDSPRIEYRHLNKLNGIKACPLLYNLPKNAVYMGFGPNDRLHFIHRDNESLNENKLLKHQQQFEKFLANYALYNDES | not soluble
7 | MGSDKIHHHHHHMPTIHLIDGEKGGVGKSLVARTMIQYCLDNNMPFVPVETDRSNPDVAGVYKGICQYAVFTEDERHADKADKIFEIAMNKTVIANLAAQSHRAVKGWIEKNHLIELGESQGVDFCKWFVSTGGYDSLNLFKQSVNSYGGKVPHILVKNLGLCDDWEHVNSDATIQEVVKKYNVKAIDFPKLAYKERNIIDQHRLTFADAREYKEFGIISKQRVVNFLKLAYASFETVGIWYEEVK | not soluble
8 | MGSDKIHHHHHHMPTPADDLVVIGKIVSVYGIRGEVKVYSFTDPLDNLLDYRRWTLRRDGEIRQAELVRGRLHGKVLAAKLKGLDDREEARTFTGYEICIPRSELPSLEEGEYYWHQLEGLKVIDQGRQLLGVIDHLLETGANDVMVVKPCAGSLDDRERLLPYTGQCVLSIDLAAGEMRVDWDADF | soluble
9 | MGSDKIHHHHHHMQATRESRLIFNINLIYGRLQRNCYGLVALLLCFTSTSAAALDSPVFYKIEYQQQQAYLLGSIHVGRQDFYPLAQHIESAFKQSDALVVEADISQGDTGALLQRYGGLPAEIAADVNATRQEYCQSHQTLCQALAPYAPWLQSAQISMGRFGQLGYSAEQGVDAYFMANRSGKNVVELESIQFQFELISSFSTATQLQMLDDSINASDAEMLDLIYAWRQGDGNALANIMESQAGDADELLEKLLWQRNHTMAQKIIQLLQSKTHKQLFIVVGAGHIVGQQAIPDLLKQQGATITRCSFLQC | not soluble
10 | MGSDKIHHHHHHMQDIDDFLRQHRITEVEAIIPDMAGIARGKIIPRNKFETGESMRLPQAVMVQTVTGDYPEDGTLTGVTDPDMVCVADASTICLIPWAVDPTAQVIHDCVHFDGSPVEISPRYVLRRVLDLYRARGWKPVVAPELEFYLVDMNKDPDLPLRPPVGRTGRAETGRQSYSIEAVNEFDPLFEDIYEYCELQGLDIDTLIHEVGAAQMEINFLHGDALSLADQVFLFKRTVREAALRHNMYATFMAKPMESEPGSAMHIHQSVVDIETGRNLFIGASGDVTPMFRSYLAGLQKYTPALMPIFAPYINSYRRLSRFMAAPINVQWGYDNRTVGFRIPHSAAAARRIENRIPGVDCNPYLAIAGTLAAGYLGVTQGLEPTEPLASDGYSLPYQLPRNLEEGLTLMSACAPLAEMLGEKFVKAYLALKETEYEAFFRVISSWERRHLLLHV | not soluble
11 | MGSDKIHHHHHHMQGVEPRERPYPQPNIQISYKKMEECPICLADDQEGEQFGCLNVCGHKFHLNCIREWHKYSINLKCPICRVESTHLEVGEGQHALSINLKMGFMIKNAIDYVGAETTNERNEDDTGEQDQEIEFLSERLRGTLVMDTIKIIQCSICGDTDVSRLSLYCQDCEAIYHETCLRGLACEVGDRNTWQECTDCRSNALLELRMGAISSQLASYDSRNSMIFAGELRDKHSVKTQQMYEQIRNAKHKIQMHVRRALDRYPLPLLRFKDAYKHVNKQVSRKLYRLSDNKYLPDQYDYDSLARTGVHTELLIYCHDE | not soluble
12 | MGSDKIHHHHHHMQIKNTQLGHIAWCETTAQHIAPQDFAVDGWREKNAVVGQSKGRYTTWFVKTDNSDSPQTWVLRHYWRGGMMEKFSRDAYFYTGLQRTRAVAELAILEVLYQEGFAVPRPIAANVERFGLWYRADIIIEHVAGANDLVAYLSHNPMTESQWYLLGETIAKFHQRGVYHADLNAKNILLAHGEFYLIDFDRGELRTPQPTWQQANLDRLLRSFNKEHAKLTTLQFSQQHWLQLLAGYQSINPI | not soluble
13 | MGSDKIHHHHHHMQIYASLLLILKLERKLCIFSGKVMELYEMYYFAFNKSSEPMLFADPNTGRIFDVNQAFLALLGYAKDEVMVKTTFDLGLLPEEDSQPRQPLWVKTKNGSLKSGMVSATDLVHKEKMMRLMVFQEQSENGNFTLEEMLTQTISLISKISEFRDPYTSGHQKRTQKLACAIASEMKLSGEAIHHVSMAAAIHDVGKIYISSDILNKPGKLTQLEYQMLQTHVEVGYEIIKDFQLPWQIPEIISQHHERLDGSGYPKGLTASQIFLESKILAVADVVDAMNSHRPYRPALGIEAALEEICNYKGEKYDSEVVEHCVRLFKEKQAMPNRFKI | not soluble
14 | MGSDKIHHHHHHMQIYLANPRGFCAGVDRAIAIVNEALLRFEPPIYVRHEVVHNKFVVSDLANRGAVFVEELHEVPDGSIVIFSAHGVSKAVEDEAERRDLTVFDATCPLVTKVHIEVAKFAQDGMDAVLIGHAGHPEVEGTMGRFNHRHGGRIHLVENESDVEALSVQDAERLAFVTQTTLSMDDTARVIDALREKFPHIQGPRKDDICYATQNRQDAVKHLASRCEVVLVVGSPNSSNSNRLRELAERMNCRAYLIDNATEMDINWFDGIQSVGVTAGASAPEVLIQEVLQQLQDWGGDLPSELSGIEENVTFSLPKALRIPMTQVGK | not soluble
15 | MGSDKIHHHHHHMQKHNIKRDCCKLLYLLICNSLFYRRSIMGVKVVKDLVYSYIEIDESVQKLIDTASFQRLKRIKQLSSSYIFPSTNHTRYEHSIGVMHLACNFFEVLEKDFRKYGLTEDRISYLRLHIKLAGLLHDVGHPPFSHLGEKFLDKNEIIACIKNEYSHLVDVDKTFYNNGRLIGKEHELLSCYCILRKFYKILKEEIDKNIDVAFICRCIIGNTYPDSENWDKNICVRIISSDSIDVDKLDYLTRDNHMTGEIAPKMDIKRLLACLTITENKELKYVAKAIPAVQTVVDSRDILYLWVYHHHISIYTDYIIGRILKRCMTLYDEHRGQALEEMNREEYFSPKAITDYLITDDDIYSHLRKIYVLSLEGKVDDFNTIIIKQIFERDFLKPLWKTIYEYKDFEKNLVDKKIIKSYDELEDILKNEKNIEDITNTLLKKLNLKEGEVFIITKYNKFYNSNKEAPISLLLNGEERKLSDLLPQKEFGKFHTMAFFVFVPKKYKKEAKEIVIEELQKISQT | not soluble
16 | MGSDKIHHHHHHMQLEVMEHYGIIKYFRDADYFETEHQRRIFNQLKKVIPEGQLIALSGVVGSGKTTTLSRLQDLLAKEKKVIVAKSLSVEKTKTNLGTLITALFYDVSGDKDYRVPKLGEKRERELRDLIQDVKKPVVLLVDEAHDLHHRTLTGLKRLMEVIRDGGGKLSILLAGHPKLKNDLKGPTMEEVGYRTIVVSLDAMQGNLREYVYWLLDNCTDDKTKPTDVIEEQAIDYLVERLTTPLQIEQHLSLALEEGFNVGVKPITVDVLDLTLSRRINDIEPRLIRHGYSEKVLVDQFHYKPAELRKFFKGELDANRVKEITQDLREAGLPI | not soluble
17 | MGSDKIHHHHHHMQLLEFPNIAIIAGENAVPVAQLPLVWQDIAKGTANVGLCNPQIYVEMAQLFLYKLEQGDVDLFNERPELAHLKSSFCQLFGQLGRETLEFYGYDFMTHNYPNFEEILREVESKDADYGKVARIGLELFQEFGYELPASFYHVHLAPIYRDHVFEERALRFDKRDIEHKRSWDAILHAGKVFAVQMKVQSIASKYGFTYQHGCGCNSHLSSIDESRGTFAYELSQEKRDRWIRSFIWTAWYEYAFFPIVPNTSYLV | not soluble
18 | MGSDKIHHHHHHMQNIVDNTLLLSYLNNEYIKKLFQQFNHPFKILRYEAKETVLHEGEMIDGLYIQMSGRTKITSSVITGKALLLRFCSAVSIMGDIELIQSVNIQSHVTSEQQTDFLFIDKNYVTSYLLQDVIFLQELIHHVTYKLQTCTTASRINLLASVETRFASYLCTARNPSNLFGREIHTKDHHEIASLIGTTTRHLNRVIEKLIANNIMHKNNKQIVVDDWKAIDTLSNGLRYE | not soluble
19 | MGSDKIHHHHHHMQNVGLVMGKSSITDFSFAVNPSAIPKFGEYVTAINRDGEEVIGIVREISNFNRMILDEGFSFEYLVKNLDFSRRLIEKNDVIVATATVIGVVKDGEVYPNRTPIKPNSEVFLADDDVLSSLFKCDRGVELGRMIARPDISVSLDIKQLVLRHFAILSVTGGGKSNTVAVLVNDIVKKLNGTVVLIDPHGEYVGYTFEDGSERGKNVVPAGIRPERLEPWEFASLVGVDREKAAVQRMHLERIFTTVRHEGKAGREFVERVLDIAEEWINIAAGKGEAEYYDFNGIKRVATLDRQDLNALARIKEYVSSFMRRYEDLLSQNDMLANIKPSYLNVVNLSGFDEGQMRVVVAYLLRNLLVGRINYVRGKKGWEKICPAIVKPLLVIFEEGHIFAPKGVNNDVVSWMGRIAREGRKFGIGLGIVSQRPKRLNDDVLSQCNTKIILRITEPNDQRYVQHASEQISEDLLKDIASLGVGEAVVVGPAVKLPVAVKIRKFAGNYGGRDIDVVEEWLGREEEQKKQVTLEDLAV | not soluble

— the DeepSol protein solubility set
